Experimental data taken from patent EP4806914A1 (Daicel Corporation, dated 2026).

Biological target: T1, AAV9 empty capsid (adeno-associated virus serotype 9 (AAV9), Assembled icosahedral particle of about 60 copies of VP1, VP2 and VP3 (nested forms of one cap gene product) with no nuc [CUT])
T1 construct: Assembled viral particle without nucleic acid, adsorbed to a Maxisorp plate; It has the same capsid protein as the full capsid and differs only in the packaged nucleic acid; also called AAV9 empty capsid sample; AAV empty capsids
Assay: ELISA, 0.1 ug AAV9 coated on Maxisorp plate, scFv detected with HRP-labeled anti-His-Tag antibody, A450-A650; reference: blank (BSA)

B1: second anti-AAV-scFv [2] (scFv)
scFv: QSLEESGGDLVKPGASLTLTCTASGFSFSSNYWMFWVRQAPGKGLEWIAHIYGGSSGSTYYASWAKGRFTISKTSSTTVTLQMTSLTAADTATYFCATVDNGYSDLKLWGPGTLVTVTSGGGGSGGGGSGGGGSELVLTQTADSVEAGVGGTVTIKCQASQSIRNWLSWYQQKPGQPPKLLISRASTLASGVPSRFSGSGSGTEFTLTISDLECDDGATYYCQSSFYADSGEPAFGGGTEVDIKRSAAAGGGSEQKLISEEDLGGGSHHHHHH
notes: Rabbit-derived scFv from a phage library, purified from E. coli culture supernatant with His MultiTrap FF; also called second anti-AAV full capsid molecule
IE/IB (ratio of ELISA absorbance for the empty capsid sample to that for the blank (BSA)): 3.7 ratio
